Data as given in the domain aggregation screens of Martell et al. (2025).

Test: soluble fraction after stress (log2 fold change); higher = more stays soluble; pooled small domains, quantitative proteomics
Settings: stress: 50 degC
Method in brief: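 The measure of aggregation propensity here is the base-two logarithm of the fold change in the soluble amount of each protein after stress. A higher value means more of that protein stays in solution. Stress was applied at 50°C to pooled libraries of small protein domains, read out by high-throughput quantitative proteomics.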

| Sequence | soluble fraction (log2) |
| --- | --- |
| HMNKNLQLMINEIKKGLASEDIETRKKSVLMLSRIDAPEIIQVLEPLKDDSSEEIRKISSKIISVLSKKYT | 0.168 |
| HMNTIIHPIRLAYVDSGSIKSMAEQAEIDVKILTSEANSQIFWAIGDEKQIDRLYNLISQVDIIQNK | -0.211 |
| HMFAADIGVGIVDADSLRVRSEPSTGAPIVTSLLRGTQVTVQEKLDGWYRITYNDVSGFVSAEYLIFTADE | -0.241 |
| HMGVTDLFAVLGFPRSPWLDAEELKQRHHALMADEASANSSPTILNEARRTLQNPALRIRHFLALEFPDH | -0.397 |
| HMFYLPEPLTEQELRILGMLLDGRSNPEIAAELFIAVGTAKWHVHNILQKLGVANRAQAIVKAHELGLT | -1.91 |
| HMRKVTDTHELSSVVKSVIDQWEEKAAEYRAGKSGLLGFFVGEVMKKTGGAADPEAAKSLLQDRLD | 0.18 |
| HMREEIESVYKTLAVTEIPYIARGNSARLGSGIQTVYDFYRMEGMQVSKILGRNGSVLWLELHG | 0.126 |
| HMLINIKTNSAVNVRSGPGMGFEVVNTYPSGYILQAKEMQKDGGDNVWYKVKDGWLSANYTIDI | -0.198 |
| HMFELTVGTPIRVIREPYFGKLGTVTELPAQLMVVESGTEVRVLKAKIEGEGEVLVPRANVEIIATG | -0.0828 |
| HMIINFDAIRLTTELNKYNRHKAIPNSFFDGTFTILDVRDLYDSLSPKVQKIADTLIEQYNVDVKQ | -1.85 |
| HMTMKVTADILNMRSEASTNSDIVTKLKKDDELKVIEETKDDDGVTWVKVDFNGQVGFVSKEFLG | 0.284 |
| HMTIDNPESQKIMDMVPFFFQSRNYDEAIEALTYVIEQEPQFSEAYNKRATFYFMMGDLENSMKDIEITLA | -0.401 |
| HMKNSIKLDNFVGMSYDEVISNKEYDFNFVSAFEKTSDYEAGTIIGQTPAAEERVMVGTTVTLTVAQP | 0.0342 |
| HMDGEMRRKRILQLLSEQTKPLSGTALAKQFGVSRQVIVQDIALLKSKEPAIISTYRGYVLGR | -0.607 |
| HMSDVVFRINANGLNVSGLANGERVSVYDTTGKLVTTAVSTQDNGTLNLPLKQSGGIYIARTQSGVSFKFT | -0.411 |
| HMQISSSEVLEKVVDEILSANPKSIEDYKNGKLQAAGFLMGQVMKATKGQANPAVAKELIEAKLKD | 0.419 |
| HMTSSQLYLIEEDMEGERLDAFLAEVIADLSRTAIKDLISNGRVLVDGQARKPSYRVKEGEQVLIHVPEAR | -0.0195 |
| HMIAAPFVVKDIRVDGVQPATGEAIISSLPVKVGQTATDADVSNVVRQLFSLNRFQNVQATREGNTLVIKV | 0.0499 |
| HMAADLIGLEARVTLPLTEDQRGFIETSVRGSLVRRAALSASGRLDRGQRVVILRSEGTTLIVDAL | -0.844 |
| HMRKNVAGITPNVYGMGLKDAVYLLENAGYRVKVNGRGNVVRQSINSGTRIIKGQLIILDLD | -2.73 |
| HMSKHAIQNELEKIEGIGKQTADSLLKEFKSVKKLRTLPLSEIEKVIGKSKATIVFEALHKDK | 0.133 |
| HMLAMHVVESVGGAEQFTKLQNFAKTQNADYQKMWNDTMNSGNVLAIKTMLSGIQSDMIAVQ | -0.16 |
| HMKSLLDQINGIGAIRKRALLNHFGSARAVESASLDEIKSVEGVEAKVAKKIYNFFHEYKNMLR | -1.12 |
| HMGAVGISQKVTSLETAVLGKNFAKDPLIDRVARLEQTVLPKQAEANASLSLPERVSKLLEKVPIAAG | 0.223 |
| HMSLMHEESLKNIRRFINSLPESLRTAFTLREQDGLSYEEIGVITETPIGTVRSRIFRAREAILEHIKKEL | -2.24 |

| Sequence | soluble fraction (log2) |
| --- | --- |
| HMDLAPLQTVDIAINYAKAAELAAILKSSEGGILSDRGGVTVDERTNTLLIRDTLESIDEARKTI | 0.122 |
| HMYEVVPNMRGLTYNQATAALAAAGLKVELSDSIYDEHTQPGTVLDQSPRPNTKVKPNRVVYLTVNAF | -0.739 |
| HMKKYFPPKSRFNPNKYLLKDWMALGLSEKQSQSILNFIQRGIYSNSALEKIYVMPEEVFTLIKDSTYYEE | -1.34 |
| HMPVFYVTGNRVNFRAGPSTGDRVIGSLSQGAAVEVLGPTDDAWINIRDSDGRVGYMSAQFLSQ | -0.069 |
| HMVSDTGAIEAIVAQVLADNPKLVEGYLATPEDKRGKAIGPFIGLTRKAAAGVNPQVVMDVLKKKLSEL | -0.0515 |
| HMKHRTQMDIQQLPAIEGKGGFEYKISIIHLSTRIKYSEIHDNYNTTTIAKVYENAIERLPPF | -2.24 |
| HMAYSEEERNLIRSRLKDVAAALFKEKGIRDTNIDEIYTPVGISKTFFYSFFPSKAVLAIAIMK | 0.0382 |
| HMVQDSEWWRNYQSAHDYFIQNGHLNVLRSDKKNTKLYNWIVGQRSSRWNSQGRINLLNSIGFIWDT | -3.08 |
| HMASSRPLAEGDFVRLRAGGATGRIESIKGQKATVQMGGLKVHAPLRDLLPVAEPIKQVSTASNT | 0.0407 |
| HMESFGVAIKRLREAQGWTRADFLRQLGKTGYYMHATTLKRIEEGEQIAKVHEAVIISRLFGVTVEEMG | -2.94 |
| HMEPVFSDPARQTLYQEVMELPAKYRVPLYLYYYEGYKVDEVGELLGLNASTVQTRLARARAKLKIQL | -0.627 |
| HMNSKQELAYQTIRARIVDGSYGPGYRIVIDEVARELGVSPIPVREAVRRLEAEGLITYTRHAGARVVA | -0.184 |
| HMDGTAKVAHMLVNELETFNRLKKHEIAYMLHIQPETLSRILNKLTRNGTIEIEKNSVVILNIQELKEIY | -1.55 |
| HMTGLSNFEFNQIKLDLMHELTQTPLRLTDLVNRITSFENEKTITVIRFLVDEGILLLKDDTLSVAKID | -0.542 |
| HMVNFKLIGNKIAEARKKVNISQAQLAQRLFISSQAVGKWERGESMPDIITFNRLAEILGVDLNYFSE | 0.0107 |
| HMQATDEEIENFTSSAITAYKLTKEEGYIISMRDMKPIMEIVKTEYPMANGKVVSKVMNNYING | -0.0668 |
| HMSEPRYRQLATILAQEIRSNHSAGDQLPSEQALAKRFEVNRHTVRRAVDELVAAGMVTRHQGWGTQVV | -0.0244 |
| HMDATIGGFKITDSAIYSGVKNNVNAGVRGTYIDKDGQIAFGDSNSYLKYYKDTDGKWKLEVSASSVKF | 0.139 |
| HMVKEVKVPDVEGLTTEEAIKELKKYGLAYTTKSEENTDIEEGKVIRTEPKKGSTKVKGSTVTIIESSG | -0.169 |
| HMRIYTKDEYLAELSRYLHKLPQDDYESAMAYFREYFEEAGPENEAQAMRDLGTPKEAASEILQNLLH | -0.305 |
| HMTSVRVPVKKEIWFWAIKESQRDLNEILARFPKMDKWINQEENPTFNQLEKVAKFLRVPFGYMFLDKPPK | -0.931 |
| HMHTNNALWAIADDMRARKDDGEFDTYREGYKWAANNIVKEGIHITAIKLEKAYHKAKSEGKV | -0.0602 |
| HMPGRPSRISDAVKDQIDHDLRKNPRDLGYSQNLWDGKLLSHHLKERYQITLGIRQAQRLFHQLGFRQR | -0.0323 |
| HMNGAAAEQARKQLMTALKASEFIAQDKLDEWLDALALPQEKRSAIIDAVDELDYEEAISELEN | -0.0176 |
| HMKVELSENEKIIYDLLSNQEVLLSEIKDKAELSNKAWDKSTKSLRKLGLVIVEKKDDNIYISKS | -0.362 |

| Sequence | soluble fraction (log2) |
| --- | --- |
| HMLNVNDVIARNVRAARERKKLTLDGAAELTGVSRSMLAQIEKGEVNPTISVVWKIANGFKVSFTSLVEPQ | -0.498 |
| HMSNLKKRRLEKNLTLDDVGKLVGVSAATISRWESGDIENMRSDKIVKLANALEISPAVILGW | -0.0215 |
| HMAAVEDLPVKSVNGKKYHYYTVQPKESLYSLSHKLGISRQEIIKYNPGVEDGLKAYEDLLFPYTPK | 0.105 |
| HMGKLGENIKRIREGMGLSQRQFGELIGKSDSQIWSYENDRTDILASTLYKIAAVANVDFNNLMAGIIP | -0.925 |
| HMKIPYGELIKLLNAAAPKLQDAQGWMDMEAAGQFIGSRWSYLDYGFKDWPDSFKTVHGLEIQGQRMRLA | -0.452 |
| HMRYLHTMIRVSDLEESLNFFKLLDIHEVSRKENEQARFTLVFLSATGDEKLVENAKSPLIELTFN | -0.0584 |
| HMETKPTELMLDVHKLRIGMFVYLDLGWMDHPFPLNRFKISTNAQIEQIKGLRLKQVKVMTALSDPASLL | -3.19 |
| HMVQVRQPAGAGDLFAKGRLHLSTGTIHTVKPLEVDLPKGRLTVVTGVSGSGKTTLILESLLPALAAAAA | 0.482 |
| HMQWQPSEEAMQRLEQHGIPRAFSFSQLDAFVLQGQEQGSNRNDWNTRFFRFIKNQWVYAQN | -1.62 |
| HMPGEIKKIPINSISYQDLKQHPYFDAYLAKQVIKYRETKGRIENIEQFREATRAYQSLIEKVTPYLDFE | 0.14 |
| HMGDLKSLIQATMDDAGISIKPDAMDYLISHLGSDRLTTRAELDKLILYAGADDKLDLDSVVELVG | -0.0746 |
| HMDVSLVEQTQRDILEYISKNNSNAQLPKEQEFVGLLGVSRVVVREALSRLRALGIIETKRKKGTVVVVPE | -0.165 |
| HMEKVLPFEFERKFKTNHTAWDFFSNQAPPSYRKTVIHWILSAKQEITRISRLEKLIAASEQQKRI | -0.319 |
| HMESVTETFLTNLINRYIADKAGYIISYPSEYRIEVLYHGGQVLDYENLRKSINTYIPAHIGYKLVTI | -0.112 |
| HMINRPVYVPLYTNLDVKDAAEIAEKLEENNIAYKLEDQGETILVNPEQKYKVRLMLAQEGLPKG | -0.0681 |
| HMKRIFEKKVVTESLNGLRLDKAAATLFADFSRNELGQWIKDEALLVNGKAKKVKEKVSEGDVLALDVELI | 0.0881 |
| HMKVIETKYNTYVVKSGDTLYSVAKKYGISVTELKEINDLSNNTLSIGQKLLVPATTIIIDE | -0.117 |
| HMKQAINFSDLNSLEEGLGIAIRQKWNEVSINDVPEDKIELVEDWINNNRGKYKGINISIGSTY | 0.167 |
| HMKRREENLRRLALSTAERVKRKGKKEILNPMSPQERRIIHLTLQNNKEVVTHSEGEDPYRRVIISPRN | 0.00802 |
| HMGLVDSLEPLLRRVYEALPQRRSMTTERLAVAAGLDEESVKVALARLQLSAFVGVDERGWHRSL | -1.11 |
| HMNLLQAHLLRLESAALLAEVREVDRQLSRWLHPLTPQSDVAIIDERNWEAAVARLTELGVHIEEGRW | -2.92 |
| HMKFLYQQVYQDIKDKITSAQYQFGDLLPSEREIGEEYHVDRTTVRKAFSLLVDEGLVEKRAGKGSVVIS | -0.594 |
| HMSSPEAAEVQRLLKDGQHVQALKIIDESLARNPKDPQMRFRRGVALSMLDRKNEALAVFQKLVED | -0.043 |
| HMDIMLLLYKNIKKRRLEIGMSQEELAQKTGYTSRSSIAKIEKGEVDLQLSKIKLFANALRVSQSELMG | -3.39 |
| HMTAQLAAQERTHALDMFMGGYKFSSKPAENGVRAEFEKKNFTLEDGKFLGGDEFMKSLMENDDYKGAFV | 0.375 |
